T1: human 5T4 on cells (human, UniProt Q13641 32-420)
T1 sequence: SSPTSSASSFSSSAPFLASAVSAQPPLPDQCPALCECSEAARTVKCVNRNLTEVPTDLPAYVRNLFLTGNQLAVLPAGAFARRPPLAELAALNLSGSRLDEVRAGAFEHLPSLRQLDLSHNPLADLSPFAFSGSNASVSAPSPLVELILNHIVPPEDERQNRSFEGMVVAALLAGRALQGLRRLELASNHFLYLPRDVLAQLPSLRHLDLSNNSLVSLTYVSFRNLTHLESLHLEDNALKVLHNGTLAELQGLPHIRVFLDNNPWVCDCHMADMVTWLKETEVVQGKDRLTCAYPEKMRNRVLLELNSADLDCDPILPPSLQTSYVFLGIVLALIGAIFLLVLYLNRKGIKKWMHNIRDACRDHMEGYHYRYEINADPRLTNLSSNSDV


Key:
[1] = biological target: T2, cynomolgus CD137 on cells (cynomolgus macaque, UniProt A9YYE7 24-254); assay: cell-based or functional assay
[2] = biological target: T1, human 5T4 on cells; assay: cell-based or functional assay
[3] = biological target: T1, human 5T4 on cells; assay: cell-based or functional assay; remark: listed apart in the source
[4] = biological target: T1, human 5T4 on cells; assay: flow cytometry, JAR cells, streptavidin-PE, normalized MFI of 2 pooled experiments
Method: (§1) Prior to the FACS staining, all cell lines were characterized for their 5T4 expression levels using a receptor density kit (Quantum Simply Cellular, anti-human IgG, Bangs Laboratories, Inc). Adherent cell lines were cultured according to their supplier's instructions and were harvested from their cell culture flasks using Trypsin/EDTA, counted in R10 medium in a Burker chamber, and diluted in FACS buffer (PBS+0.5% BSA, 0.05% NaN₃) to a concentration of 4×10⁶ cells/mL. 50 μL (0.20×10⁶) of cell solution was added to a 96-well FACS staining plate (Falcon #351190). Cells were incubated for 20 min in 4° C. with 50 μL of the biotinylated ALG.APV-210 (2× final concentration). The antibodies were added in a serial dilution starting at 20 μg/mL titrating down in a 12 step ½ dilution down to 0.010 μg/mL. Following 2× washing with FACS buffer, cells were incubated for 30 min in 4° C. with 100 μL of a secondary antibody (streptavidin-PE, BD #554061, diluted 1/500). […] Cells were analysed for ALG.APV-210 binding using flow cytometry (FACSVerse) by gating on single cells. MFI values (secondary antibody only subtracted) from 1 out of 2 independent experiments, as well as normalized data and EC₅₀-values of pooled data from 2 experiments were determined and plotted using GraphPad Prism 7, non-linear regression log (agonist) vs. normalized response—variable slope.

[5] = biological target: T2, cynomolgus CD137 on cells; assay: flow cytometry, MFI of all CD3+CD8+ cells gated from CD3-stimulated cynomolgus PBMC
Method: (§2) Following 48 h of incubation with or without CD3, human and cynomolgus PBMC were harvested, pooled, recounted and diluted in FACS buffer (PBS+0.5% BSA, 0.05% NaN₃) to a concentration of 5×10⁶ cells/mL. 50 μL (0.25×10⁶ cells) of cell solution was added to a 96-well FACS staining plate (Falcon #351190). Following 10 min of Fc-blocking in RT using Beriglobin (hIgG, 200 μg/mL), cells were washed in FACS buffer and then incubated for 1 h in 4° C. with 100 μL of the biotinylated ALG.APV-210 or negative control. The antibodies were added in a serial dilution starting either at 5 μg/mL titrating down in a 12 step ⅓ dilution down to 0.0003 μg/mL (exp 1) or 1 μg/mL titrating down in a 12 step ½ dilution down to 0.0005 μg/mL (exp 2). […] Cells were analysed for ALG.APV-210 binding using flow cytometry by gating on viable, single cells expressing CD3 and CD8. MFI values (FMO subtracted) from 2 independent experiments as well as normalized pooled data from 2 experiments and EC₅₀-values were determined and plotted using GraphPad Prism 7, non-linear regression log (agonist) vs. normalized response—variable slope, n=6 donors/group.

[6] = biological target: T3, human CD137 on cells (human, UniProt Q07011 24-255); assay: flow cytometry, CD8 T cells gated from CD3-stimulated human PBMC, biotinylated antibody + streptavidin-APC, exp 2, n=3 donors
T3 construct: also called 4-1BB; TNFRSF9 (CHO-K1/human CD137 cells)
Method: as §2, with “control.” for “control. The antibodies were added in a serial dilution starting either at 5 μg/mL titrating down in a 12 step ⅓ dilution down to 0.0003 μg/mL (exp 1) or 1 μg/mL titrating down in a 12 step ½ dilution down to 0.0005 μg/mL (exp 2).”
In ELISA tests, the binding of biotinylated ALG.APV-210 to CD137 was similar to that of the non-biotinylated ALG.APV-210 (0.6 nM vs. 0.7 nM). The binding (EC₅₀) of the biotinylated ALG.APV-210 to its immunomodulatory target CD137 when expressed on activated primary human and cynomolgus CD8 T cells from CD3 stimulated PBMC was assessed and compared between the two species as well as to unstimulated cells. […]

[7] = biological target: T1, human 5T4 on cells; assay: flow cytometry, CT26 cells transfected with human 5T4 (intermediate clone), biotinylated ALG.APV-210 + streptavidin-PE, 1 of 2 experiments
Method: as §1, with “μg/mL.” for “μg/mL. Following 2× washing with FACS buffer, cells were incubated for 30 min in 4° C. with 100 μL of a secondary antibody (streptavidin-PE, BD #554061, diluted 1/500).”
The binding (EC₅₀) of the biotinylated ALG.APV-210 to 5T4 when expressed on cells, either at endogenous levels on human tumor cells or on cells transfected to express 5T4 was assessed. […]

T2 sequence (A9YYE7 entry or part of it): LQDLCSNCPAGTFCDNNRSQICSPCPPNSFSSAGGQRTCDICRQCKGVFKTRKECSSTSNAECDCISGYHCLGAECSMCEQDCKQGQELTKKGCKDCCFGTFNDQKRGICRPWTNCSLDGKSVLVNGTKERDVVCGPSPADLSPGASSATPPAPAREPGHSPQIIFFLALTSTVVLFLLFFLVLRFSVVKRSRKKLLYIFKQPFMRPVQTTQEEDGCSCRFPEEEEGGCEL
T3 sequence (Q07011 24-255 limits assumed): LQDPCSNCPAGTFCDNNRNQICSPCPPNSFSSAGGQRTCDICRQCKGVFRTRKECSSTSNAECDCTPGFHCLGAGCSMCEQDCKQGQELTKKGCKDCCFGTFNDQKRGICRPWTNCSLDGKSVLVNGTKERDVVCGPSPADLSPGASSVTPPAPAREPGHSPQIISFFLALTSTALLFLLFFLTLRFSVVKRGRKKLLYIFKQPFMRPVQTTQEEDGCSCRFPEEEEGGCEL

| EC50 (nM), IFNγ release of cynomolgus CD8 T cells on plate immobilized 5T4-Fc and anti-CD3 [1] | maximal IFNγ release with CT26-h5T4^low cells relative to CT26-h5T4^high cells [2] | maximal IFNγ release with CT26-wt cells (no 5T4) relative to CT26-h5T4^high cells [2] | EC50 (nM), IFNγ release of human CD8 T cells with CT26-h5T4^high cells [3] | EC50 (nM), IFNγ release of human CD8 T cells with CT26-h5T4^low cells [3] | Binder | EC50 [4] | EC50 [5] | EC50 (read off the curve) [6] | EC50 (read off the curve) [7] |
| --- | --- | --- | --- | --- | --- | --- | --- | --- | --- |
| 0.4 nM | 82% | 7% | 0.41 nM | 0.24 nM | ALG.APV-210 (bispecific antibody, Optimized ADAPTIR scFv-Fc-scFv homodimer with stabilizing disulfide in the 1210 scFv; also called 5T4-CD137 bispecific antibody) EVQLLESGGGLVQPGGSLRLSCAASGFTFSHGSMYWVRQAPGKGLEWVSSISSGSGSTYYADSVKGRFTISHDNSKNTLYLQMNSLRAEDTAVYYCARSSYYGSYYSIDYWGQGTLVTVSSGGGGSGGGGSGGGGSGGGGSDIQMTQSPSSLSASVGDRVTITCRASQSISSYLNWYQQKPGKAPKLLIYAASSLQSGVPSRFSGSGSGTDFTLTISSLQPEDFATYYCQQYYDNLPTFGQGTKLEIKEPKSSDKTHTCPPCPAPEAAGAPSVFLFPPKPKDTLMISRTPEVTCVVVDVSHEDPEVKFNWYVDGVEVHNAKTKPREEQYNSTYRVVSVLTVLHQDWLNGKEYKCAVSNKALPAPIEKTISKAKGQPREPQVYTLPPSRDELTKNQVSLTCLVKGFYPSDIAVEWESNGQPENNYKTTPPVLDSDGSFFLYSKLTVDKSRWQQGNVFSCSVMHEALHNHYTQKSLSLSPGSGGGGSGGGGSGGGGSPSEVQLLESGGGLVQPGGSLRLSCAASGFTFSSYAMSWVRQAPGKCLEWVSAISGSGGSTYYADSVKGRFTISRDNSKNTLYLQMNSLRAEDTAVYYCARYYGGYYSAWMDYWGQGTLVTVSSGGGGSGGGGSGGGGSGGGGSDIQMTQSPSSLSASVGDRVTITCRASQSISSFLNWYQQKPGKAPKLLIYAASSLQSGVPSRFSGSGSGTDFTLTISSLQPEDSATYYCQQTYGYLHTFGCGTKLEIKR |  |  |  |  |
|  |  |  |  |  | biotinylated ALG.APV-210 (bispecific antibody, also called ALG.APV-210 (biotinylated for FACS detection)) EVQLLESGGGLVQPGGSLRLSCAASGFTFSHGSMYWVRQAPGKGLEWVSSISSGSGSTYYADSVKGRFTISHDNSKNTLYLQMNSLRAEDTAVYYCARSSYYGSYYSIDYWGQGTLVTVSSGGGGSGGGGSGGGGSGGGGSDIQMTQSPSSLSASVGDRVTITCRASQSISSYLNWYQQKPGKAPKLLIYAASSLQSGVPSRFSGSGSGTDFTLTISSLQPEDFATYYCQQYYDNLPTFGQGTKLEIKEPKSSDKTHTCPPCPAPEAAGAPSVFLFPPKPKDTLMISRTPEVTCVVVDVSHEDPEVKFNWYVDGVEVHNAKTKPREEQYNSTYRVVSVLTVLHQDWLNGKEYKCAVSNKALPAPIEKTISKAKGQPREPQVYTLPPSRDELTKNQVSLTCLVKGFYPSDIAVEWESNGQPENNYKTTPPVLDSDGSFFLYSKLTVDKSRWQQGNVFSCSVMHEALHNHYTQKSLSLSPGSGGGGSGGGGSGGGGSPSEVQLLESGGGLVQPGGSLRLSCAASGFTFSSYAMSWVRQAPGKCLEWVSAISGSGGSTYYADSVKGRFTISRDNSKNTLYLQMNSLRAEDTAVYYCARYYGGYYSAWMDYWGQGTLVTVSSGGGGSGGGGSGGGGSGGGGSDIQMTQSPSSLSASVGDRVTITCRASQSISSFLNWYQQKPGKAPKLLIYAASSLQSGVPSRFSGSGSGTDFTLTISSLQPEDSATYYCQQTYGYLHTFGCGTKLEIKR | 9 nM | 0.236 nM | ~0.2 nM | ~10 nM |
